A short description of the data set: self-splicing fitness, log relative to wild type (ln ratio); higher = more splicing; Tetrahymena group I intron in knt gene, E. coli kanamycin selection, DiMSum; sequences stand for … in CUCUCU…GGAGGGAAAAGUUAUCAGGCAUGCACCUGGUAGCUAGUCUUUAAACCAAUAGAUUGCAUCGGUUUAAAAGGCAAGACCGUCAAAUUGCGGGAAAGGGGUCAACAGCCGUUCAGUACCAAGUCUCAGGGGAAACUUUGAGAUGGCCUUGCAAAGGGUAUGGUAAUAAGCUGACGGACAUGGUCCUAACCACGCAGCCAAGUCCUAAGUCAACAGAUCUUCUGUUGAUAUGGAUGCAGUUCACAGACUAAAUGUCGGUCGGGGAAGAUGUAUUCUUCUCAUAAGAUAUAGUCGGACCUCUCCUUAAUGGGAGCUAGCGGAUGAAGUGAUGCAACACUGGAGCCGCUGGGAACUAAUUUGUAUGCGAAAGUAUAUUGAUUAGUUUUGGAGUACUCGUGGUCG
In short, it runs like this: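 Six replicate transformations of E. coli BL21(DE3) with a pET-22b(+) library were grown overnight at 37°C or 30°C. The library randomised all eight P1ex-region intron nucleotides, the intron lying in the knt kanamycin-resistance gene, and plates were LB agar with or without 25 μg/mL kanamycin plus 100 μg/mL carbenicillin, 50 μM IPTG and 0.2% rhamnose. Pooled colonies were amplicon-sequenced on an Illumina HiSeq 2500, and fitness is the DiMSum error-weighted combination of wild-type-normalised replicate fold changes, kanamycin versus none.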

± gives the uncertainty stated by the source.

Regarding UUGAAGCAAUAUUACGAUAU, the “self-splicing fitness (ln)” value (30 °C) is -1.97 ± 0.075 and the “self-splicing fitness (ln)” value (37 °C) was -1.03 ± 0.1. As for UUGAAGCAAUAUUACGAUGG, the “self-splicing fitness (ln)” value is, setting by setting: (30 °C) -0.452 ± 0.07; (37 °C) 0.232 ± 0.1. The like results for UUGAAGCAAUAUUACGCAUA were, in that order, -0.461 ± 0.072 and 0.189 ± 0.1. On the same counts, the results for UUGAAGCAAUAUUACGCCGA are 0.633 ± 0.2 and 0.737 ± 0.25.

As for UUGAAGCAAUAUUACGCUAU, the “self-splicing fitness (ln)” value (30 °C) was -2.7 ± 0.25 and the “self-splicing fitness (ln)” value (37 °C) is -1.45 ± 0.26. On the same counts, the results for UUGAAGCAAUAUUACGCUUU are -3.5 ± 0.23 and -2.56 ± 0.36. For UUGAAGCAAUAUUACGGAAC, the “self-splicing fitness (ln)” value runs as follows: (30 °C) -3.62 ± 0.32; (37 °C) -2.08 ± 0.3. The like results for UUGAAGCAAUAUUACGGCCU were, in that order, -0.822 ± 0.13 and -0.147 ± 0.16.

As for UUGAAGCAAUAUUACGGGAC, the “self-splicing fitness (ln)” value was -2.18 ± 0.3 (30 °C) and -2.34 ± 0.28 (37 °C). As for UUGAAGCAAUAUUACGUCAA, the “self-splicing fitness (ln)” value (30 °C) was -0.54 ± 0.083 and the “self-splicing fitness (ln)” value (37 °C) amounted to 0.078 ± 0.1. Consider UUGAAGCAAUAUUACGUCAC, for which the “self-splicing fitness (ln)” value reads like this: (30 °C) -3.27 ± 0.21; (37 °C) -1.25 ± 0.2. The like results for UUGAAGCAAUAUUACGUCCU were, in that order, -0.231 ± 0.18 and -0.346 ± 0.13. With UUGAAGCAAUAUUACGUCUA, the “self-splicing fitness (ln)” value is, setting by setting: (30 °C) 0.0429 ± 0.11; (37 °C) 0.627 ± 0.12. In the case of UUGAAGCAAUAUUACGUGGC, the “self-splicing fitness (ln)” value is -3.36 ± 0.2 (30 °C) and -1.66 ± 0.22 (37 °C). The like results for UUGAAGCAAUAUUACGUGUU were, in that order, -4.53 ± 0.21 and -1.92 ± 0.14. Turning to UUGAAGCAAUAUUACGUUAG, the “self-splicing fitness (ln)” value runs as follows: (30 °C) -0.587 ± 0.1; (37 °C) 0.138 ± 0.12.

Consider UUGAAGCAAUAUUACGUUUC, for which the “self-splicing fitness (ln)” value is -3.35 ± 0.2 (30 °C) and -3.3 ± 0.32 (37 °C). On the same counts, the results for UUGCAGCAAUAUUACGAACA are -0.626 ± 0.17 and -1.24 ± 0.15. On the same counts, the results for UUGCAGCAAUAUUACGAAGC are -2.28 ± 0.3 and -0.93 ± 0.36.

For UUGCAGCAAUAUUACGAAUC, for the setting “37 °C”, the “self-splicing fitness (ln)” value is -2.06 ± 0.47.

Consider UUGCAGCAAUAUUACGAGUG, for which the “self-splicing fitness (ln)” value by setting is: (30 °C) -1.61 ± 0.1; (37 °C) -1.46 ± 0.13. For the sequence UUGCAGCAAUAUUACGCCGG, the “self-splicing fitness (ln)” value reads like this: (30 °C) -0.957 ± 0.075; (37 °C) -0.103 ± 0.12. UUGCAGCAAUAUUACGCCUC: the “self-splicing fitness (ln)” value is -2.47 ± 0.45 (30 °C) and -0.787 ± 0.37 (37 °C).

Consider UUGCAGCAAUAUUACGCUGA, for which the “self-splicing fitness (ln)” value by setting is: (30 °C) -3.27 ± 0.26; (37 °C) -1.68 ± 0.17. For UUGCAGCAAUAUUACGGAAA, the “self-splicing fitness (ln)” value by setting is: (30 °C) -2.52 ± 0.14; (37 °C) -0.504 ± 0.1. With UUGCAGCAAUAUUACGGAAG, the “self-splicing fitness (ln)” value runs as follows: (30 °C) -3.02 ± 0.34; (37 °C) -0.414 ± 0.14.

Take UUGCAGCAAUAUUACGGAGU: the “self-splicing fitness (ln)” value is, setting by setting: (30 °C) -4.51 ± 0.42; (37 °C) -2.44 ± 0.2. On the same counts, the results for UUGCAGCAAUAUUACGGCUG are -3.43 ± 0.3 and -2.59 ± 0.24.

In the case of UUGCAGCAAUAUUACGGUGA, the “self-splicing fitness (ln)” value (30 °C) was -1.44 ± 0.14 and the “self-splicing fitness (ln)” value (37 °C) stood at 0.0799 ± 0.14.

With UUGCAGCAAUAUUACGGUGC, the “self-splicing fitness (ln)” value (30 °C) is -3.79 ± 0.26 and the “self-splicing fitness (ln)” value (37 °C) is -2.67 ± 0.26. For the sequence UUGCAGCAAUAUUACGUUGG, the “self-splicing fitness (ln)” value runs as follows: (30 °C) -2.68 ± 0.15; (37 °C) -2.42 ± 0.18. Turning to UUGGAGCAAUAUUACGAAGA, the “self-splicing fitness (ln)” value is, setting by setting: (30 °C) -2.83 ± 0.41; (37 °C) -2.53 ± 0.49. In the case of UUGGAGCAAUAUUACGACGC, for the setting “37 °C”, the “self-splicing fitness (ln)” value is -2.47 ± 0.33. The same measure, in the same setting: the result for UUGGAGCAAUAUUACGAGAC reads -2.25 ± 0.5.

UUGGAGCAAUAUUACGAGAU: the “self-splicing fitness (ln)” value by setting is: (30 °C) -2.83 ± 0.29; (37 °C) -2.36 ± 0.36. On the same counts, the results for UUGGAGCAAUAUUACGAGGA are -3.13 ± 0.48 and -1.56 ± 0.27. As to UUGGAGCAAUAUUACGAUGC, the “self-splicing fitness (ln)” value (30 °C) is -1.76 ± 0.28.

UUGGAGCAAUAUUACGCAGA: the “self-splicing fitness (ln)” value was -2.13 ± 0.33 (30 °C) and -1.13 ± 0.16 (37 °C). On the same counts, the results for UUGGAGCAAUAUUACGCAUG are -3.5 ± 0.26 and -0.58 ± 0.13.
